Assay results as given in patent publication US20190091326A1.

What was measured:
[1] = biological target: A244 V1/V2 scaffold, wildtype, gD-tagged, produced in normal 293 HEK cells (herpes simplex virus 1; HIV-1 isolate A244) (UniProt Q69091); assay: capture ELISA on 34.1 anti-gD; scaffold made in 293 cells
[2] = biological target: ZM233 V1/V2 scaffold, engineered, gD-tagged, produced in normal 293 HEK cells (herpes simplex virus 1; HIV-1 isolate ZM233); assay: capture ELISA on 34.1 anti-gD; purified scaffold made in 293 cells
[3] = biological target: MN V1/V2 scaffold, engineered, gD-tagged, produced in normal 293 HEK cells (herpes simplex virus 1; HIV-1 isolate MN); assay: as above
[4] = biological target: A244 V1/V2 scaffold, engineered, gD-tagged, produced in normal 293 HEK cells (herpes simplex virus 1; HIV-1 isolate A244) (UniProt Q69091); assay: as above
[5] = biological target: 108060 I169K/E172V/T161M/N156I/S164G/D167G V1/V2 scaffold, gD-tagged, produced in normal 293 HEK cells (herpes simplex virus 1; HIV-1 isolate 108060); assay: as above
[6] = biological target: JRFL-E168K V1/V2 scaffold, engineered, gD-tagged, produced in normal 293 HEK cells (herpes simplex virus 1; HIV-1 isolate JRFL); assay: as above
ZM233 mutant + N156 = assay: ELISA, PG9 titrated, absorbance 490 nm
ZM233 mutant - N156 = assay: ELISA, PG9 titrated, absorbance 490 nm
[7] = biological target: ZM233 V1/V2 scaffold, wildtype, gD-tagged, produced in normal 293 HEK cells (herpes simplex virus 1; HIV-1 isolate ZM233); assay: ELISA; table row ZM233 V1/V2 wt, column 293
[8] = biological target: 108060 V1/V2 scaffold, wildtype, gD-tagged, produced in normal 293 HEK cells (herpes simplex virus 1; HIV-1 isolate 108060); assay: ELISA; table row 108060 V1/V2 wt, column 293
[9] = biological target: 108060 V1/V2 scaffold, wildtype, gD-tagged, produced in GnTI- 293 HEK cells (herpes simplex virus 1; HIV-1 isolate 108060); assay: ELISA; table row 108060 V1/V2 wt, GnTI-
[10] = biological target: MN V1/V2 scaffold, wildtype, gD-tagged, produced in normal 293 HEK cells (herpes simplex virus 1; HIV-1 isolate MN) (UniProt Q69091); assay: ELISA; table row MN V1/V2 wt, column 293
[11] = biological target: ZM233 V1/V2 scaffold, engineered, gD-tagged, produced in GnTI- 293 HEK cells (herpes simplex virus 1; HIV-1 isolate ZM233); assay: capture ELISA on 34.1 anti-gD; scaffold made in GnTI- cells
[12] = biological target: 108060 I169K/E172V V1/V2 scaffold, gD-tagged, produced in GnTI- 293 HEK cells (herpes simplex virus 1; HIV-1 isolate 108060); assay: ELISA; table row 108060 V1/V2 I169K/E172V, GnTI-
ZM233 mutant, Mock = assay: ELISA of mock- or Endo H-digested scaffold, PG9 titrated, absorbance 490 nm
MN mutant, Mock = assay: as above
[13] = biological target: A244 V1/V2 scaffold, engineered, gD-tagged, produced in normal 293 HEK cells (herpes simplex virus 1; HIV-1 isolate A244) (UniProt Q69091); assay: ELISA; table row A244 V1/V2.eng1*, column 293
ZM197 V1/V2 wt (GnTI-) = assay: ELISA; table row ZM197 V1/V2 wt, GnTI-
[14] = biological target: ZM109 V1/V2 scaffold, wildtype, gD-tagged, produced in GnTI- 293 cells (herpes simplex virus 1; HIV-1 isolate ZM109); assay: ELISA; table row ZM109 V1/V2 wt, GnTI-
[15] = biological target: ZM233 V1/V2 scaffold, wildtype, gD-tagged, produced in normal 293 HEK cells (herpes simplex virus 1; HIV-1 isolate ZM233); assay: capture ELISA on 34.1 anti-gD; scaffold made in normal 293 cells
[16] = biological target: A244 V1/V2 scaffold, engineered, Strep-tag/6x Histidine-tag, produced in normal 293 cells (HIV-1 isolate A244); assay: SPR (Biacore 3000), PG9 captured by anti-human Fc, scaffold flowed
[17] = biological target: A244 V1/V2 scaffold, wildtype (unmutated), Strep-tag/6x Histidine-tag, expressed in GnTI- cells (HIV-1 isolate A244); assay: as above
[18] = biological target: 108060 I169K/E172V/T161M/N156I/S164G/D167G V1/V2 scaffold, gD-tagged, produced in GnTI- 293 HEK cells (herpes simplex virus 1; HIV-1 isolate 108060); assay: ELISA; table row 108060 V1/V2.eng1*, GnTI-
[19] = biological target: JRFL-E168K V1/V2 scaffold, engineered, gD-tagged, produced in GnTI- 293 HEK cells (herpes simplex virus 1; HIV-1 isolate JRFL); assay: ELISA; table row JRFL-E168K V1/V2.eng1*, GnTI-
CAP.45 V1/V2 wt (GnTI-) = assay: ELISA; table row CAP.45 V1/V2 wt, GnTI-
[20] = biological target: MN V1/V2 scaffold, engineered, gD-tagged, produced in GnTI- 293 HEK cells (herpes simplex virus 1; HIV-1 isolate MN); assay: ELISA; table row MN V1/V2.eng1*, GnTI-
[21] = biological target: ZM233 V1/V2 scaffold, wildtype, gD-tagged, produced in GnTI- 293 HEK cells (herpes simplex virus 1; HIV-1 isolate ZM233); assay: ELISA; table row ZM233 V1/V2 wt, GnTI-

## PG9 monoclonal antibody
[1]
  EC50: 0.893 µg/mL
[2]
  EC50: 0.00227 µg/mL
[3]
  EC50: 0.0274 µg/mL
[4]
  EC50: 0.0991 µg/mL
[5]
  EC50: 0.093 µg/mL
[6]
  EC50: 0.0473 µg/mL
ZM233 mutant + N156
  EC50 (read off the curve): 0.1 µg/mL
ZM233 mutant - N156
  EC50 (read off the curve): 0.03 µg/mL
[7]
  EC50: 0.077 µg/mL
[8]
  EC50: > 10 µg/mL
[9]
  EC50: > 10 µg/mL
[10]
  EC50: > 10 µg/mL
[11]
  EC50: 0.01 µg/mL
[12]
  EC50: 0.113 µg/mL
ZM233 mutant, Mock
  EC50 (read off the curve): 0.03 µg/mL
MN mutant, Mock
  EC50 (read off the curve): 0.1 µg/mL
[13]
  EC50: 0.099 µg/mL
ZM197 V1/V2 wt (GnTI-)
  EC50: 0.0303 µg/mL
[14]
  EC50: 0.0143 µg/mL
[15]
  EC50: 0.0771 µg/mL
[16]
  koff: 0.0019 s⁻¹
[17]
  koff: 0.00077 s⁻¹
[18]
  EC50: 0.00685 µg/mL
[19]
  EC50: 0.013 µg/mL
CAP.45 V1/V2 wt (GnTI-)
  EC50: 0.0527 µg/mL
[20]
  EC50: 0.00796 µg/mL
[21]
  EC50: 0.00951 µg/mL
